A protein production outcome set (Wang et al. 2014)

Test: label from the status in PepcDB records

MDVGMPFSGPVSFPLLVIEEELPFRIHNICSETGKFDVVLDSITNMPKYGLKIFAGVRIDMYSILGDESSGRIYTLRKGTLADFNARILAYYDKAQVINADGDTCIKMANEGYSALVGNEISIGKSFRNRMKELGLDLPSCAMASTRRIDEVIEAYEQGIDFIKNNHERAAEIISKKSGYYSEEVMKKIIGIYGHEVTKKRAELVGSRELYSRVVPELNDIEIIG
protein production: not failed

MNNENMVRVFYVLLMGLGFPIMRFMSIHFETLNNNSVRFLSGGSLFVIICLIKFRSELKKIIGEPKIILYLFIYLFILGIFMTGNMFFFINGLKYTSALAGSIFGILAMPLAIIIAGIFFKDERDRIRQKEFYIGELLAIIGSLIFVINSSNNDGNTDFFLGAIFLFTAIFIQSVQNLIVKKVAKKINAVVISASTATISGVLFLCLAFNTKQIYLLQDVGIGMLIGLVCAGFYGMLTGMLMAFYIVQKQGITVFNILQLLIPLSTAIIGYLTLDERINIYQGISGIIVIIGCVLALKRKNKEC
protein production: failed

MSKIDWDSPEGAERYDRNCDHQFQKGHVLIEMMGIKKGDFVLDVGCGTGRQALNVAGIIGPAGKLTGIDPSSYRIELARKKFEGDSSGNVRFLVRQAENLQDIPDNSINHAYFCSSFHWVDDKKTALNEIFRVLRPGGKVGMTTLDRNSPNTMKALIDPILAKFGIERRHEWHRGMKKVTAPELHDLLSGAGFTSISIEPRAVPRKYNSPEEFLQHPEEKDSSRGILRDISNETLEKLRQEITEEFRKAQTPEDIGFGNITLFAIATKAQEGI
protein production: failed

PRTVKELTVSAGDNLIITLPDNEVELKAFVAPAPPVETTYNYEWNLISHPTDYQGEIKQGHKQTLNLSQLSVGLYVFKVTVSSENAFGEGFVNVTVKPAR
protein production: not failed

MRHWLILFLLALPCLAGAVSFNEQVERLPLGQSIDVFEDVRGSADINDITSRAIDSSFRRHDKDVLNAGYSRSVFWLRLDLDYRPVASSDPRTWLLELAYPPLDKLDLYLPDGQGGYRLAQRTGDTLPFASRPIRQNNYLFELGLEPNKPQRVYLRLESQGSIQAPLTLWSPKAYLEEQPERIYVLGIIYGVLLVMLIYNLFIFLSVRDTSYLYYILYIASFGLYQVSVNGAGIEYFWPDSPWWANAATPFLIGSAALFGCQFARSFLHTRDHSVWVDRGLLALMAVGALVMLMALTMSYAVALRLATYLALAFTGLIFAAGILAWLRGMRVARYFIIAWTAFLLGGIVNTLMVLGYLPNMFLTMYASQIGSALEVGLLSLALADRINAMKEERARILQESSRKLEALNQELANSNRLKDEFLATVTHELRTPMSGVIGSLELMQTVPMDVELAEYQRTAAGSARDMMRMVNDILALIELQAGKLYPRREPFSLRGLFDSLRAQYAPRVEEKGLRFALQLDDSLPDTLEGDAGKLAQALGYLVDNAIKFTARGSVTLRVAAGRTHDGVALRVEVIDTGIGFDMAAGSDLYQRFVQADSSLTRGYGGLGIGLALCRKLVELLGGELTHESRPGQGSRFLLRLQLTQPAQGLAPPPRRAGGQAVRRPEECTVLVVEDNAINQLVTRGMLLKLGYRVRTADNGSEALELLARERPDGVLLDCQMPVMDGFATCRAIRALPGCAELPVLALTAHSHSGDRERCLAAGMSDYMAKPVKFEELQTLLHDWLLCQPIVTKSA
protein production: failed

MSLTTSHFIPFPREMVWDWHTRKGAVARLTPPFIPLNPITQAERLADGTTIFSLPAGLKWVARHDLSGFLNGSRFTDVCLTAPVKALANWRHVHNFVDQDGGTLITDSVSTRLPASTLTGMFAYRQTQLIEDLKFLSRTSTLFDGSPLTVAITGSRGLVGRALTAQLQTGGHEVIQLVRKEPKPGKRFWDPLNPASDLLDGADVLVHLAGEPIFGRFNDSHKEAIRESRVLPTKFLAELVAESTQCTTMISASAVGFYGHDRGDEILTEESESGDDFLAEVCRDWEHATAPASDAGKRVAFIRTGVALSGRGGMLPLLKTLFSTGLGGKFGDGTSWFSWIAIDDLTDIYYRAIVDAQISGPINAVAPNPVSNADMTKILATSMHRPAFIQIPSLGPKILLGSQGAEELALASQRTAPAALENLSHTFRYTDIGAAIAHELGYEQLADFAQQQEIEAERKQERAELKAAKKIAKKAPVLEESPTNLEDPEEVEQSILSSILNFRRKRNDLEHHHHHH
protein production: not failed

MIEWQLAELIPHAGDMILIDQVLDFDEEQINTRLTVRADGLFNQPDGSLPAWLGIELMAQSVAAYAGCQARSKGEAVKLGFLLGSRKFDCNVARFPAGSELHIHAIRSLQDDSGMGVFECTLTGPDITALARLNVYCPPNTADYLAEGAPALEHHHHHH
protein production: not failed

MGNSLHQIKCCTSFIHCQNAAVDAPSIAKTLADYLYPAFFHQDLPAPLKISVTGCPNQCGGGVEADIGISGYFATVPRVDDAGLMAANIDFGHLISGCPVGAIRPRQVEGGTTVVINAERCIRCTSCIQVAPEGIKPGPERFVAIAVGGHGGNNRRGPEMAAVVFSRVPARPLDYAAICERVQRIIACWRDRGKRGERLAGFLERLEHHHHHH
protein production: failed

MATGTATEKPKIVWNEGRHRFETDDHEAFIEYKMKNDGKVMDLVRTFVPPSKAGLGLASHLCVAAFEHASEHSFSIIPTCSYVSVYISSFLKKLR
protein production: failed

MRTYTAQPDTTRPDTLTVTTYNIGYLSGMRNNEPVVRPDSLFHANMDQAAGYLRAAAPDIVALQEIDFGGARAAHVHQLDTLAARLGYPGAAQAVNWDERYLPFPYGRPAVHFGRTLSGQAVLSRFPVRRHVRRTLPRPPQPFFRDAFYLDRLAQVGVVDVDGRPLAVINVHLEAFDVGTRETQARVVNDLYRRLADRGIPTLLLGDFNSSLSSGEEGGQAGAEDATMQHILAGTDLRSAVNTASADTASATYPADAPARTIDHIFYPPQFFEAVDTQRWCGRPAPPSDHCAVTAALRLPSRAKWPSHEALPPLEDSPTE
protein production: failed

MIIRQGFKFRLEASDTQGARLRVLCGHARFVWNQALAKCHEAADAEGEYVPRYETMAKWVTAWKREPDTEWLKEAYTDNLQQKLKDLDTGWQRYFKKVEGAQRPRFKKKGKSRDSVRFVNFQKYCKIDNRRVKLPAGLGWVRFRKSREIVGAIKNCTVGFEGGRWFISFQTEREVSEPAHPSASMIGVDMGVARFLTLSDGTFIEPVSAFKVNQGNLARAQRALARKVKFSANWQKQKAKINRLHSRIANLRRDTLHKASTQISNNHAMIVIEDLKVGNMSRSAKGDVDNPGVNVKAKSGLNRSILDQGWYEFRRQLEYKQAFRGGGVLAVPAHHTSQTCPECQHVSPDNRTSQARFECVKCGFKENADLVGAINIQARGHRVLACGEFGLPDSVKQEPVRNREEVAPSAAHAALGIPHRRC
protein production: failed

MRKFKISVLLKLGFYCLFLSIGLEMQARKFVHPGILHTTKSIERMRAQIADKEYPAYGSFELLKSHHCSQADYQPFGPFEIISRDGEFRHTKSKMEQDFSAVYQNALMWVLTGEKTHAEKSLELLLGYAGTLKRIPETNDAPLLVGLEGLKIIYATEILRHTYKKMTVVQFNEISRMIREVFLPVMENFYHRKPYTNGNWGPIVTKAYMAAAILWDNEEMYNKAVDFYLHANDNGTIAHYISGDTGQIQESGRDQGHSMLGIGALATVCEIAWQQGDDLYSALDNRLMKGFEYVAKYNLGYNVPFAVWKDVTGKYSNWTEISNKGRGRYMPIFEMTYNHFVIRKGMQMPYTEQVLRQIRPEGYDRDQPAFGSLLFNEAGTKKNYVDLVNPFVDSHRSRWFFFSSACRPFGMVSLSPDTDTEHSWGSGYLYDSKQIRCFSHVHNWQMSGVAVMPTVGEFKGHLGMNAYQSAFTHDGEIAKPGYHKVKLTDYDITAELTSTMRVGFHCYTFPKSDASYILFDTGAFLAHGPTAYSEVWKVSDKEIAGWEMMERTGRRPKDTPVYFYAQLSKPMDKVVSWREGRIESNSNPERISGKNAGMAVRFKTEKDEKVMLKVAISYVSVEQARKNMLTELSGWDFEQVKQSSFSEWNDWLGRIEVEGGSREQQIKLYTDLWHALLGRHVVSDADGHYMDMTSDFPRIRQIPLGEDGKPLYNHHNFDAWWGSHWSLNILWSMAYPEVMDNFCNTMIDMYQNGGLIPRGPSGGNYTYVMIGDPAVSFFASAYNKGIRNYDAELAYEGLRKNAFVGGIRDHAGYEHSKTAYSGGMKYYEEWGYVPDGRKDVEGMHTTGASMTLEYAYQDWCLAQMAKTMGKLQDYEFFMKRSKNYRNLWNPESGYMQPRGEDGNWLPYFDPLELTEKGGFCESNSAIYSHYVPHDMAGLIELYGGADQYVKRLNANFEKSESYGFFRSNKTKEGNWTDYGNQPGTGMAHLFSYAGAPWLTQKWVRKVKAAYCDVTPYGGYRDDEDQGQMGALGVLMAIGLFEVDGGCAEKPFYEITSPLFDKVTIHLDNRYYSGKTFQIITKGNSTDNMYIQNASLNGKKWNKCWFYHEDFIKGGTLELKLGAKPNKKWGVEELPPSFISSK
protein production: failed

MEQTTIDGIALTLAGPVQLPLKWVGQDELLQQLLAAWMVIDDRDIPFSPRLIGKPGVGKTTLAYAAARRLGRPVYLFQATMDTRPEDLIITPVIGPDGKIQYAASSLVSAMVKGGVLILDEGNRMSEKAWASLAPLLDDRRYVESIITGLRVPAHRDFRIVVTMNEDASTFEVPEYIHSRLQPQIFIDFPEADEELMILKENLPFAPTRILKYVVDFLQRAHAADELYSVRDGINIARYALKMMAATERDAAELLPLAVERVLGDEALRYLALEHHHHHH
protein production: failed

MDKHKKNNQKEKRVKRNLKTLLLGSPREITIPGSRFPNGTQNLVPVVDIQKGVLITEDGRYIKVLEIVPTNFYLKSRIEQQNIIYYFSCYLKIAPQSLQILVCTQRADIDAYCDQMEKYYNREKNENCKAMILEDAQLVNYLASYEAVTRRFYLIYEYKGEATEFTEISKELADQAETAYQYLDYCGLEVLRHDNYDEFLLRTVYTAYHKQSARNINFSALMEQVGPVFNTPEITEDQLEEEDSEGITTIQDVLAPTEADLEHSKYILIDGVYHAYLYITGYSYPTERGLAWLSPLIELGDGISLSFFLEKKRKEQILSKVVKTTMINRSRLRDIEDIRADYEELDDAIYSGMYIKDRLNRDGEDFFYMHTLIEVTALDETTLNKRIKQVQNLCVSMDMTARRADWCHEQCFRSMLPIAKLDMDIAKRTQRNVLTSGAAGAFPFSSFELCDNKGVLMGINLHNNSAVIVDNFNSDIYSNGNLAIFGMSGAGKTYTLLLLAMRLRMCGVQVFIIAPEKGFEYRCACEAIGGQFLRLSPGSEDCINLMEIRRSTLDIDSNLANNIQRNDSVLLSKVQDLHTYIRLRYPQITPEEAYQLNIAILECYESFGITKDNRSLLNPDGSFKAMPDFTHLYSCLLKYPSLKNVALAVKEIIDFGMGGQTNVDLFSSFIVLDTSGAKKKDISSSTFVATSFIRDELSRSRTRKKAVLGDELWVIAGEEGNEQAADFIIEMVKLIRGYGAIFVSATQNTLDYFALRDGKFGDALLNNSRLKLLLQMEEAEAIKLQEKLGLSDEEVMQVVRCGRGQGLLCAGKNRIGIEIRSSQTEYELITTNRTDLEKREARTDTAEL
protein production: failed

ADAQLIGHTNPSGEITFGEETFTIAQALDTLERDYREVYPLNVTTADVEALPDFATALPKADTDSEEANASAGDKAVHVLLPVFPGTNSEYDMAEAFEAAGATTEFHIIRNLNSEMLAADTEAFITKLQSANILAFSGGFSLGDEPDGSAKFMAAFLRSDTVAAAIKDFVARDGLVLGICNGFQALVKSGFLPYGDPAKMSAESPTLAHNRQLRHVSRIATTRVSSVASPWLSTFTPGQQHLMPVSHGEGRFVVSEKEAQALFSAGQVAFQYVDAEGTPTMEAPANPNGSNYAIEGIISPDGRILGKMGHPERFRDGLMRNIPGMEIQDIFANAVNYCRKSQR
protein production: failed

RDSLFNDPNAPVLGNPEGDVTVVEFFDYNCPYCRRAMAEVQGLVDADPNVRLVYREWPILGEGSDFAARAALAARQQGKYEAFHWALMGMSGKANETGVLRIAREVGLDTEQLQRDMEAPEVTAHIAQSMALAQKLGFNGTPSFVVEDALVPGFVEQSQLQDAVDRARKAAAK
protein production: not failed
